Results on 34 sequences are retold here after the domain aggregation screens of Martell et al. (2025).

This data set in a line: soluble fraction after stress (log2 fold change); higher = more stays soluble; pooled small domains, quantitative proteomics. Particulars: stress: 50 degC. Summed up: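 Custom libraries of small protein domains were pooled and measured in a high-throughput format, with quantitative proteomics as the read-out. Each library was stressed at 50°C. The value is the log2 fold change in the amount of each protein that stays soluble after stress, used as a measure of aggregation propensity; higher values mean more of the protein stays soluble.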

Turning to “HMETDGGDLTPRERDVLSLIGRGLRNAEAASALGLSEHTIAGHIKSVYSKLGISTRAEAALLASRLGL”, the “soluble fraction (log2)” value is -0.0786.

Take “HMQGEVVTNRSVIDMSRAGLSADIIRAKILRSDTNFDVTAKALIELKESGVPDDIIALMLERADS”: the “soluble fraction (log2)” value was 0.128.

Regarding “HMLVYQRLDKDNFIFEGKTLLNDIYKILDIESNYFEAIRGEADSIAGLLLEIAKSIPTINTEF”, the “soluble fraction (log2)” value was -0.171. Then “HMMLVKKMLNGIMMKEITIKELADQYDVSTRTIQLKIKKLGYEWDSKESIYRYVGKESEPLDVDFSTLI”, with -3.29; and “HMVDPRWETPDENLAEQIKSVMPVMWVYDREAKSFVERPAIDFSFSIFERTTLYIYDKDGNEIGFAR”, with -0.028. As to “HMNEKTGTLTVYSSPGWAKVYIDGEYKGITPVMANLTYGDHYVKLTLDGYDSIGNHIDVNSPDQSYTGKF”, the “soluble fraction (log2)” value was -0.494. Then “HMQPETIEDATNLYLEAARATLQLIEQNNVIARDVKRLLEHLDNDMARIETLLAEMLSRRDHWLRHIH”, with -0.12; and “HMLAAGTPLTVVTESSNLNIRQEPSTEAAVVGKAAKGEIVTLVEQTSGEWWKVSTKDGEEGYAYSRYL”, with 0.341. In the case of “HMHHIDTAWFRGKMREHRLTQEAVGQAIGLERSMVSKIIKGTVSFNARKASAWAQLLRVSESEILERVGI”, the “soluble fraction (log2)” value is -2.37.

Regarding “HMGKNISEEDMLGYFKKIDLDYDAETKEVIAPTFRHDLFRLADLAEEVARFFGYDNIPTTLPSGEAT”, the “soluble fraction (log2)” value was 0.0416. On to “HMGAGEQMLPKVMFAEGDRVVHKVFGEGTVVTVDRPAQTYDIQFDKLRGTRRIMFRAELEGI”, for which the “soluble fraction (log2)” value is -0.554. Then “HMKRISDEDLLVMRRIDEVHTYHPTWGYRTITRILRRDDHLLINPKKVRRIMRDMGIYTIYPK”, with -0.039; and “HMEDTFEYPVSVNGKLRFKIELPVSMEKDEIRNIVLNDERAKKWLATGTLTNLIVVPNRIINIVIK”, with -0.124; and “HMSMSLQFLSRRIRLQREKRGLKQHDIAHALQISPQAVSKWERGENAPDIALLRPLAGLLGVSIDWLMGGD”, with -2.15. On to “HMEQETVTVPDLVGKDVVAAQAELHEMGLSGKPDGTGTTVVSQFPVAGARVLKHTNVILYTED”, for which the “soluble fraction (log2)” value is -0.0147.

On to “HMNIEIIEVQEESTPSEISKIISTESTKIIEDLLNLGVMASLETPLKNQDIEKLLEGYGYIVDIKP”, for which the “soluble fraction (log2)” value was -0.372. The result for “HMKFLYQKAREEIISLIQDGEIKPSEKIMPERELSELLGYNRMTIKKAINSLVAEGVLMKKRGAGTFLLG” reads -0.387. Then “HMTEPIESVTTIAGRRIPYRLVRSLRARRMRMTIKESQVTVTLPRGVPLGEAERFLQQNAAWLFKQLDKP”, with -2.22; and “HMGYTLDVAHGVTEDMNFSEAFATAREEVGPGGIFYWHGKPYGTYYENEWNAMDEEDKAEYWDAVGRTTA”, with -0.149; and “HMKGSIFLDEATKMVDNSALKSLNTFLEEYARETNNQIFLISHQETPAEVTQIKLKKVGGETSYE”, with 0.124. As for “HMNKFRVGDEVEIVKLDKTIQHFGGEEVLSPVGTKTYITYVDVTGKEIEIDKDIYSYHADDLTLV”, the “soluble fraction (log2)” value amounted to 0.147. Consider “HMLINFPNKLKRLRLANNLTQQELANILETTKQAVSSYESGKSTPSLNSLIKLSEHFNISLDSLVFD”, for which the “soluble fraction (log2)” value was 0.183. Then “HMQSVSANSVQKQLADIIDGEDKTHPLSDRELTEKLVAQGVQISRRTVAKYREAMGIPGASGRKQ”, with 0.072.

Take “HMQATDEEIENFTSSAITAYKLTKEEGYIISMRDMKPIMEIVKTEYPMANGKVVSKVMNNYING”: the “soluble fraction (log2)” value was -0.0668.

For the sequence “HMRKYEAVPASVVPAQIQEYVAKSNFPNQYIRKIERNKYTWEIELSNGLEIKFDRQFNVIGFD”, the “soluble fraction (log2)” value is -1.49. Then “HMGKPVTMELLIPYSQGSLVHRISEAGEVAKTEYQNDGTYMQVTFTPSAKDHALMQEVASYRI”, with 0.184; and “HMEYLIENYGSVINQARMKKGMTQEQLSSKTGVSQAYIRSIESQNMKPTDAVARKIEFELGIKLFE”, with -0.0273; and “HMSELDASYLGQRVRYVSGFTETDPSEGLVEFRGSNWRARAEHPPLDHSGHWVIVKVESNTLWVEEKSN”, with -0.22. As to “HMIPTTELAERLGTTKVANMIMLGALIKASGIISFDDMIKNLGELLGEGKAKLIKLNKEALEVGFN”, the “soluble fraction (log2)” value was -0.0172. Then “HMEGVNLTVQEAKQMAAIIAPLLKQGQSPYQIVTNHPELGISEKTLYNYIENDVFHEIAGITVMDL”, with -0.365; and “HMGIEQVELASRVRDAVDSLPHHLREIILLSYFQKMSYNQIAETLQVPLGTVKSRLHAAVASFAQAWTQSS”, with -0.706. Consider “HMAEWLLVQLTNGNWFYGEVIEKTDATIVLNTDILGKVSIQKLDIRRSISGPLTAAKRQEIEDSERAKD”, for which the “soluble fraction (log2)” value is -0.0179. The result for “HMPPPVERAIRKLGHDLSLARRRRRISQDSMAQRMGASVSTVRRIEKGDPRIPIHFIARAMMILGDLKAL” reads -0.0422; that for “HMYIENIGDYLKSHDIKPSYQRIKVFEYLMQHKNHPTVDMIYKSLVDEIPTLSKTTVYNTLNLFIEKQI”, -1.74.
